The values that follow come from article PMC9772228, “Structure of a RecT/Redβ family recombinase in complex with a duplex intermediate of DNA annealing”.

One data set concerns the target T1, LiRecT K191A/F194A (Listeria innocua CLIP 11262, UniProt Q92FL9 1-271, K191A;F194A).
T1 sequence: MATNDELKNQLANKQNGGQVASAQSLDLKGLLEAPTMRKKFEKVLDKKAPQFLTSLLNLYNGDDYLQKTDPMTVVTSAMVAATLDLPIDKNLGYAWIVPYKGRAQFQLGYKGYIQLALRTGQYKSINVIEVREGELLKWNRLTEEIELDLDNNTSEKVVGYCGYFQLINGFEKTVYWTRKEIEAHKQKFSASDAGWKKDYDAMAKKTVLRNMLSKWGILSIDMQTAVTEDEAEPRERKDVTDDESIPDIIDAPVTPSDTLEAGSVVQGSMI
Description: EMSA; EMSA: PBS pH 7.4 (or KH2PO4/10 mM MgCl2 pH 6.0), 3.6 or 5 uM protein, 25 uM nt DNA, 37 C 15 min per strand, 0.8% agarose 1x TBE; cryo-EM: 20 mM KH2PO4 (Results: 10 mM), 10 mM MgCl2 pH 6.0, 37 C; native MS: 100 mM ammonium acetate pH 7, 37 C. Conditions: protein: recombinant, tags: N-terminal 6His vector tag (20 aa) retained, chain copies: 10, single strand. In general terms: In EMSA bound probe runs differently from free probe, usually more slowly.

The next data set addresses T2, LiRecT V98A (Listeria innocua CLIP 11262, UniProt Q92FL9 1-271, V98A).
T2 sequence: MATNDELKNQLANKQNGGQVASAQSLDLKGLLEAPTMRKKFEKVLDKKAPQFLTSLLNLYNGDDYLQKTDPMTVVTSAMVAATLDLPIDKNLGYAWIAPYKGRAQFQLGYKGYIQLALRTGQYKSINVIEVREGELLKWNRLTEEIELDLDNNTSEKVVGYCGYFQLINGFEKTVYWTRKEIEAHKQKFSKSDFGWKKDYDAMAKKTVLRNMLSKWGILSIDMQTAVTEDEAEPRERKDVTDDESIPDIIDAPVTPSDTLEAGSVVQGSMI
The description is as above. Conditions: protein: recombinant, tags: N-terminal 6His vector tag (20 aa) retained, chain copies: 10, single strand.

B1: Cy5-50mer (ssDNA)
DNA: CCATCCGCAAAAATCGAGCTATGCAGGGCGATTCTGCTCTAAGCCATCCG
As for B1, the binding result with LiRecT K191A/F194A (label: 5'-Cy5) and with LiRecT V98A (label: 5'-Cy5) was “binds” throughout.

B2: Cy3-50mer (ssDNA)
DNA: GCGGATGGCTTAGAGCAGAATCGCCCTGCATAGCTCGATTTTTGCGGATG
Take B2: the binding result with LiRecT K191A/F194A (label: 5'-Cy3) and with LiRecT V98A (label: 5'-Cy3) was “binds” in each case.
